From the supplement of paper PMC11780869

Test system: Bacillus subtilis
Assay: cleaved RNA product abundance (RNA/gDNA barcode ratio) relative to median wild-type variant (ratio to wild type); higher = more accumulation of the downstream cleavage product
Conditions: cleavage site: cggR-gapA (positions -7 to +36 mutated)
Procedure, shortened: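 Cleaved product abundance is expressed as the RNA:gDNA barcode ratio per construct, scaled to the median construct carrying the unmutated site. The constructs were barcoded, mutagenized RNase Y cleavage-site windows in truncated aprE or tetM reporter mRNAs integrated into the B. subtilis chromosome. Cultures grew in LB at 37°C from OD600 0.0003 to 0.3 before cleaved RNA was gel-selected and barcode-sequenced.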

[1] = experiment (reporter, strain, medium): exp 2b: truncated aprE reporter, strain BJT200
[2] = experiment (reporter, strain, medium): exp 4a: truncated aprE reporter, strain BJT201 with 2% xylose (RNase J1 expressed)
[3] = experiment (reporter, strain, medium): exp 6: tetM reporter, strain 168

Sequence	cleaved RNA product abundance [1]	cleaved RNA product abundance [2]	cleaved RNA product abundance [3]
ACAGACGAAGGAGCCGCAAAGAAGTTATTAAGGGATTAATAATCCCTAAATATAAATATCTCTCACTTATTTAAA	0.535	0.745	–
ACAGACGAAGGAGCCGCAAAGAAGTTATTAAGGGATTAATAATCCCTCAAAATAAATATCTCTCACTTATTTAAA	0.334	0.419	–
ACAGACGAAGGAGCCGCAAAGAAGTTATTAAGGGATTAATAATCCCTCAACATAAATATCTCTCACTTATTTAAA	–	0.444	–
ACAGACGAAGGAGCCGCAAAGAAGTTATTAAGGGATTAATAATCCCTCAAGATAAATATCTCTCACTTATTTAAA	0.203	0.254	–
ACAGACGAAGGAGCCGCAAAGAAGTTATTAAGGGATTAATAATCCCTCAATATAAACATCTCTCACTTATTTAAA	–	0.803	–
ACAGACGAAGGAGCCGCAAAGAAGTTATTAAGGGATTAATAATCCCTCAATATAAAGATCTCTCACTTATTTAAA	0.486	0.818	–
ACAGACGAAGGAGCCGCAAAGAAGTTATTAAGGGATTAATAATCCCTCAATATAAATAACTCTCACTTATTTAAA	1.02	0.594	–
ACAGACGAAGGAGCCGCAAAGAAGTTATTAAGGGATTAATAATCCCTCAATATAAATATATCTCACTTATTTAAA	–	1.23	–
ACAGACGAAGGAGCCGCAAAGAAGTTATTAAGGGATTAATAATCCCTCAATATAAATATCTCTCACTTATTTAAA	0.996	0.958	1.09
ACAGACGAAGGAGCCGCAAAGAAGTTATTAAGGGATTAATAATCCCTCAATATAAATCTCTCTCACTTATTTAAA	–	0.637	–
ACAGACGAAGGAGCCGCAAAGAAGTTATTAAGGGATTAATAATCCCTCAATATAAATGTCTCTCACTTATTTAAA	–	0.707	–
ACAGACGAAGGAGCCGCAAAGAAGTTATTAAGGGATTAATAATCCCTCAATATAAATTTCTCTCACTTATTTAAA	0.686	0.57	–
ACAGACGAAGGAGCCGCAAAGAAGTTATTAAGGGATTAATAATCCCTCAATATAATTATCTCTCACTTATTTAAA	–	0.43	–
ACAGACGAAGGAGCCGCAAAGAAGTTATTAAGGGATTAATAATCCCTCAATATACATATCTCTCACTTATTTAAA	–	0.799	–
ACAGACGAAGGAGCCGCAAAGAAGTTATTAAGGGATTAATAATCCCTCAATATATATATCTCTCACTTATTTAAA	–	0.957	–
ACAGACGAAGGAGCCGCAAAGAAGTTATTAAGGGATTAATAATCCCTCAATATCAATATCTCTCACTTATTTAAA	–	0.0629	–
ACAGACGAAGGAGCCGCAAAGAAGTTATTAAGGGATTAATAATCCCTCAATCTAAATATCTCTCACTTATTTAAA	0.164	–	–
ACAGACGAAGGAGCCGCAAAGAAGTTATTAAGGGATTAATAATCCCTCAATGTAAATATCTCTCACTTATTTAAA	–	0.108	–
ACAGACGAAGGAGCCGCAAAGAAGTTATTAAGGGATTAATAATCCCTCAATTTAAATATCTCTCACTTATTTAAA	–	0.176	–
ACAGACGAAGGAGCCGCAAAGAAGTTATTAAGGGATTAATAATCCCTCACTATAAATATCTCTCACTTATTTAAA	0.233	0.26	–

Sequence	cleaved RNA product abundance [1]	cleaved RNA product abundance [2]	cleaved RNA product abundance [3]
ACAGACGAAGGAGCCGCAAAGAAGTTATTAAGGGATTAATAATCCCTCAGTATAAATATCTCTCACTTATTTAAA	–	0.224	–
ACAGACGAAGGAGCCGCAAAGAAGTTATTAAGGGATTAATAATCCCTCATTATAAATATCTCTCACTTATTTAAA	0.247	0.534	–
ACAGACGAAGGAGCCGCAAAGAAGTTATTAAGGGATTAATAATCCCTCCATATAAATATCTCTCACTTATTTAAA	–	0.197	–
ACAGACGAAGGAGCCGCAAAGAAGTTATTAAGGGATTAATAATCCCTCGATATAAATATCTCTCACTTATTTAAA	–	0.594	–
ACAGACGAAGGAGCCGCAAAGAAGTTATTAAGGGATTAATAATCCCTCTATATAAATATCTCTCACTTATTTAAA	–	0.547	–
ACAGACGAAGGAGCCGCAAAGAAGTTATTAAGGGATTAATAATCCCTGAATATAAATATCTCTCACTTATTTAAA	–	0.768	–
ACAGACGAAGGAGCCGCAAAGAAGTTATTAAGGGATTAATAATCCCTTAATATAAATATCTCTCACTTATTTAAA	–	0.563	–
ACAGACGAAGGAGCCGCAAAGAAGTTATTAAGGGATTAATAATCCGTCAATATAAATATCTCTCACTTATTTAAA	–	0.165	–
ACAGACGAAGGAGCCGCAAAGAAGTTATTAAGGGATTAATAATCCTTCAATATAAATATCTCTCACTTATTTAAA	0.431	0.39	–
ACAGACGAAGGAGCCGCAAAGAAGTTATTAAGGGATTAATAATCGCTCAATATAAATATCTCTCACTTATTTAAA	0.109	0.0904	–
ACAGACGAAGGAGCCGCAAAGAAGTTATTAAGGGATTAATAATCTCTCAATATAAATATCTCTCACTTATTTAAA	0.716	–	–
ACAGACGAAGGAGCCGCAAAGAAGTTATTAAGGGATTAATAATGCCTCAATATAAATATCTCTCACTTATTTAAA	0.14	0.125	–
ACAGACGAAGGAGCCGCAAAGAAGTTATTAAGGGATTAATAATTCCTCAATATAAATATCTCTCACTTATTTAAA	0.543	0.569	–
ACAGACGAAGGAGCCGCAAAGAAGTTATTAAGGGATTAATATTCCCTCAATATAAATATCTCTCACTTATTTAAA	–	1.13	–
ACAGACGAAGGAGCCGCAAAGAAGTTATTAAGGGATTAATCATCCCTCAATATAAATATCTCTCACTTATTTAAA	–	1.2	–
ACAGACGAAGGAGCCGCAAAGAAGTTATTAAGGGATTATTAATCCCTCAATATAAATATCTCTCACTTATTTAAA	0.957	1.09	–
ACAGACGAAGGAGCCGCAAAGAAGTTATTAAGGGATTGAATAATCCCTCAATATAAATATCTCTCACTTATTTAA	–	0.788	–
ACAGACGAAGGAGCCGCAAAGAAGTTATTAAGGGATTGATAATCCCTCAATATAAATATCTCTCACTTATTTAAA	–	0.889	–
ACAGACGAAGGAGCCGCAAAGAAGTTATTAAGGGATTTATAATCCCTCAATATAAATATCTCTCACTTATTTAAA	–	0.931	–
ACAGACGAAGGAGCCGCAAAGAAGTTATTAAGGGCAGAATAATCCCTCAATATAAATATCTCTCACTTATTTAAA	0.174	–	–

Sequence	cleaved RNA product abundance [1]	cleaved RNA product abundance [2]	cleaved RNA product abundance [3]
ACAGACGAAGGAGCCGCAAAGAAGTTATTAAGGGCTAAATAATCCCTCAATATAAATATCTCTCACTTATTTAAA	0.389	0.368	–
ACAGACGAAGGAGCCGCAAAGAAGTTATTAAGGGCTGAAAAATCCCTCAATATAAATATCTCTCACTTATTTAAA	0.212	–	–
ACAGACGAAGGAGCCGCAAAGAAGTTATTAAGGGCTGAACAATCCCTCAATATAAATATCTCTCACTTATTTAAA	–	0.156	–
ACAGACGAAGGAGCCGCAAAGAAGTTATTAAGGGCTGAATAAACCCTCAATATAAATATCTCTCACTTATTTAAA	–	0.47	–
ACAGACGAAGGAGCCGCAAAGAAGTTATTAAGGGCTGAATAACCCCTCAATATAAATATCTCTCACTTATTTAAA	–	0.424	–
ACAGACGAAGGAGCCGCAAAGAAGTTATTAAGGGCTGAATAATCCATCAATATAAATATCTCTCACTTATTTAAA	0.084	0.0979	–
ACAGACGAAGGAGCCGCAAAGAAGTTATTAAGGGCTGAATAATCCCACAATATAAATATCTCTCACTTATTTAAA	–	0.0873	–
ACAGACGAAGGAGCCGCAAAGAAGTTATTAAGGGCTGAATAATCCCCCAATATAAATATCTCTCACTTATTTAAA	–	0.157	–
ACAGACGAAGGAGCCGCAAAGAAGTTATTAAGGGCTGAATAATCCCTAAATATAAATATCTCTCACTTATTTAAA	–	0.537	–
ACAGACGAAGGAGCCGCAAAGAAGTTATTAAGGGCTGAATAATCCCTCAATATAAATAACTCTCACTTATTTAAA	–	0.729	–
ACAGACGAAGGAGCCGCAAAGAAGTTATTAAGGGCTGAATAATCCCTCAATATAAATATCTCTCACTTATTTAAA	0.587	0.593	0.473
ACAGACGAAGGAGCCGCAAAGAAGTTATTAAGGGCTGAATAATCCCTCAATATACATATCTCTCACTTATTTAAA	–	0.433	–
ACAGACGAAGGAGCCGCAAAGAAGTTATTAAGGGCTGAATAATCCCTCTATATAAATATCTCTCACTTATTTAAA	–	0.255	–
ACAGACGAAGGAGCCGCAAAGAAGTTATTAAGGGCTGAATAATCCCTTAATATAAATATCTCTCACTTATTTAAA	–	0.626	–
ACAGACGAAGGAGCCGCAAAGAAGTTATTAAGGGCTGAATAATTCCTCAATATAAATATCTCTCACTTATTTAAA	0.0668	–	–
ACAGACGAAGGAGCCGCAAAGAAGTTATTAAGGGCTGAATATTCCCTCAATATAAATATCTCTCACTTATTTAAA	0.228	0.16	–
ACAGACGAAGGAGCCGCAAAGAAGTTATTAAGGGCTGTATAATCCCTCAATATAAATATCTCTCACTTATTTAAA	–	0.54	–
ACAGACGAAGGAGCCGCAAAGAAGTTATTAAGGGCTTAATAATCCCTCAATATAAATATCTCTCACTTATTTAAA	–	0.481	–
ACAGACGAAGGAGCCGCAAAGAAGTTATTAAGGGGATGAATAATCCCTCAATATAAATATCTCTCACTTATTTAA	–	0.237	–
ACAGACGAAGGAGCCGCAAAGAAGTTATTAAGGGGTAAATAATCCCTCAATATAAATATCTCTCACTTATTTAAA	–	0.708	–
